% SPECIFIC BINDING (of 125I TNF to WEHI-164 cells) data for 1 substance are collected here from US20040214993A1.

In experiment [1] the target is TNF receptors on WEHI-164 cells (mouse). In words: radioreceptor assay, cold TNF 500 ng/tube.
For experiment [2] the target is unchanged. The experiment is described as follows: radioreceptor assay, cold TNF 10 ng/tube.
The target is the same in experiment [3]. In words: radioreceptor assay, cold TNF 100 ng/tube.
Experiment [4] has the same target. The experiment is described as follows: radioreceptor assay, cold TNF 1,000 ng/tube.
Experiment [5] shares this target. In words: radioreceptor assay, cold TNF 10,000 ng/tube.
Experiment [6] shares this target. In words: radioreceptor assay, cold TNF 0 ng/tube.
Experiment [7] has the same target. In words: radioreceptor assay, cold TNF 1 ng/tube.
Experiment [8] has the same target. The experiment is described as follows: radioreceptor assay, cold TNF 5,000 ng/tube.

Sequence of TNF receptors on WEHI-164 cells (mouse) (P25118 30-454): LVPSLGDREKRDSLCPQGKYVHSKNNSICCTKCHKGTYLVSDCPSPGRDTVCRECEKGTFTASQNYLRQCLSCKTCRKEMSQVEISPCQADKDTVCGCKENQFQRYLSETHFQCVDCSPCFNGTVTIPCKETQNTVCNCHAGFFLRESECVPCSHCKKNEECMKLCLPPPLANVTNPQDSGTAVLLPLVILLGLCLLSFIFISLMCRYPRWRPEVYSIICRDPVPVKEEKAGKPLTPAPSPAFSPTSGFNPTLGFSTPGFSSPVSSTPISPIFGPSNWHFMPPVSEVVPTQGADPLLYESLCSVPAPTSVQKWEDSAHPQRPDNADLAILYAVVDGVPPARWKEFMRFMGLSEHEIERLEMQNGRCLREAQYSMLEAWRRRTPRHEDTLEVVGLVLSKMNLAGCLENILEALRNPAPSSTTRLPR

Turning to “human recombinant TNF alpha (from UniProt P01375 1-233) (ligand)”, the % SPECIFIC BINDING (of 125I TNF to WEHI-164 cells) in experiment [1] was 10%; in experiment [2] it was 64%; in experiment [3] it was 11%; in experiment [4], 0%; in experiment [5], 0%; in experiment [6] it was 100%. The % SPECIFIC BINDING (of 125I TNF to WEHI-164 cells) in experiment [7] worked out at 108%; in experiment [8], 0%.
